Experimental data taken from patent US8410115B2, “Methods of treating inflammatory and autoimmune diseases with alpha-4 inhibitory compounds” (Elan Pharmaceuticals, Inc., priority 2006, dated 2013).

How the values were obtained:
JCV [1] = conditions: one MS patient with PML after natalizumab plus AVONEX; cited from earlier work
JCV [2] = conditions: in vitro; cited from earlier work
[3] = target: serotonin 5HT2(A) receptor (Homo sapiens, UniProt P28223); assay: 5HT2(A) receptor antagonism in vitro
Chain of serotonin 5HT2(A) receptor (P28223 whole entry): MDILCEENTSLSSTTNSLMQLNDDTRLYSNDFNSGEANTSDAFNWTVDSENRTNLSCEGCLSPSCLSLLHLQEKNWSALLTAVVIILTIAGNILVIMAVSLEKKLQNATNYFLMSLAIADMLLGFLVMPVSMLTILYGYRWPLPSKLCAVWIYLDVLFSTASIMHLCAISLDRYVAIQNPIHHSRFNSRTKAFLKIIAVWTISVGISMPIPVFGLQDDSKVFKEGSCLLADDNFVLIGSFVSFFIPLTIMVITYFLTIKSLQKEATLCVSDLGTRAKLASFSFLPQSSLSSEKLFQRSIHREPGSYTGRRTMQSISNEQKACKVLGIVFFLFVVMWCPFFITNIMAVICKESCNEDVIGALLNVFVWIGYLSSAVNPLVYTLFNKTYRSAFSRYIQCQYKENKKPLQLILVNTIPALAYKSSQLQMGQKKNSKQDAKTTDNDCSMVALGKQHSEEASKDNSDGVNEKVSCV

MS patients [4] = conditions: 2-year Phase 3 MS trials; cited from earlier work
Crohn's Disease patients = assay: Deaths in Crohn's Disease trials of natalizumab; type: in vivo, human; conditions: natalizumab-treated Crohn's Disease patients
Source text: The exposure to natalizumab was approximately three-fold greater in these trials than exposure to placebo. The causes of death were acute myocardial infarction, acute renal failure, carbon dioxide asphyxiation, PML, pneumocystis carinii pneumonia, and bronchopulmonary aspergillosis.

[5] = test system: relapsing MS patients relapsing despite AVONEX; assay: Phase 3 add-on therapy study: natalizumab added to AVONEX versus AVONEX plus placebo for 120 weeks; type: in vivo, human
Method: (§1) As described in more detail in Example 1, two Phase 3 studies were conducted to study the effect of two years of treatment with natalizumab. One of the studies used natalizumab alone (the monotherapy study) and the other used natalizumab in combination with AVONEX® (the add-on therapy study). Both these Phase 3 studies were designed with two sets of primary and secondary endpoints. The primary and secondary endpoints were selected to measure the effects of natalizumab on the inflammatory aspects of the disease after a mean of one year of follow-up in each study (900 patient-years of observation in the monotherapy study; 1,200 patient-years in the add-on therapy study).
(§2) The primary endpoint of these studies was the annualized rate of clinical relapses. Two of the secondary endpoints were two supporting MRI measures of inflammatory disease activity, namely, the mean number of new or newly enlarging T2-hyperintense lesions (measuring lesion accumulation over time) and the mean number of Gd-enhancing lesions (measuring acute disease activity), as ranked in order of importance. The proportion of patients remaining relapse-free provided a third secondary endpoint.
(§3) Another series of endpoints was assessed at the conclusion of each study following two years of natalizumab treatment. The endpoints for this final analysis were selected to determine natalizumab's effects on measures associated with MS disease progression. The primary endpoint at two years was the time until onset of sustained progression of disability, as measured by changes in EDSS scores. Similar to the one-year analysis, the secondary endpoints were additional MRI and clinical measures that would support the primary analysis. The secondary endpoints at two years, ranked in order of importance, were the rate of MS relapses (to confirm one-year relapse observations), the mean volume of T2-hyperintense lesions (a measure of overall MS disease burden), the mean number of T1-hypointense lesions (a measure of axonal loss), and progression of disability as determined by changes in the MSFC (to confirm and expand upon disability effects as measured by the EDSS).
(§4) Given two primary endpoints at two different time points (annualized relapse rate at one year, time to disability progression at two years), the Hochberg procedure for multiple comparisons (Hochberg, Biometrika 75:800-802 (1988)) was used to evaluate the primary endpoint. Each set of secondary endpoints was prioritized in order of importance as listed above. A closed testing procedure was used for each set, such that if statistical significance was not achieved for an endpoint within a set, all endpoints(s) of a lower rank in that set were not considered statistically significant.
The add-on therapy study was designed to evaluate the efficacy of natalizumab against active control for patients breaking through AVONEX® monotherapy. The choice of β-interferon was supported by available data on the proposed mechanisms of action of the available drugs. As discussed above, natalizumab has a well-defined mechanism of action, specifically targeting cellular adhesion and trans-endothelial migration via α4-integrins, as do the class of alpha-4 inhibitor compounds. Although the exact mechanism by which interferon-β exerts efficacy in MS is not known, interferon-β induces a large number of cellular processes involved in cytokine secretion and cellular phenotype changes. […]

[6] = test system: rheumatoid arthritis patients; assay: Deaths in rheumatoid arthritis trials of natalizumab; type: in vivo, human; conditions: natalizumab-treated rheumatoid arthritis patients
Source text: Three deaths occurred in the rheumatoid arthritis trials, two in natalizumab-treated patients and one in a patient treated with a placebo. The natalizumab-treated patients died of hemoptysis with respiratory failure and end-stage rheumatoid pulmonary disease. The placebo-treated patient died of circulatory and respiratory insufficiency.

[7] = Natalizumab in combination with glatiramer acetate over six months; type: in vivo, human; conditions: 20 mg daily glatiramer acetate
Method: The safety of natalizumab in combination with glatiramer acetate was evaluated by administering natalizumab over six months to patients who continued to receive 20 mg of daily glatiramer acetate. […] However, this study was of insufficient size or duration to establish the long-term safety or efficacy in this population.

[8] = test system: relapsing remitting MS patients; assay: Phase 3 monotherapy study: natalizumab versus placebo for 120 weeks; type: in vivo, human
Method: as §1, §2, §3, §4
Both Phase 3 studies had similar designs. In the monotherapy study, 942 untreated relapsing remitting MS patients were randomized to receive natalizumab or placebo for 120 weeks (30 infusions) using a 2:1 allocation. In the add-on study, 1,171 patients who had been receiving weekly intramuscular injections of 30 μg AVONEX®, but who had relapsed despite this treatment, were randomized using a 1:1 allocation to add natalizumab or placebo to their regimen, also for 120 weeks.
Efficacy parameters included EDSS scores, MS relapses, brain MRI scans, MSFC scores, visual function tests, and quality of life. EDSS and MSFC were measured every 12 weeks, brain MRI scans and quality of life questionnaires at baseline and every year, and MS relapses on an ongoing basis.
The patient population in the two Phase 3 studies were relapsing MS patients according to the criteria of the International Panel on the Diagnosis of Multiple Sclerosis (McDonald et al., Ann. Neurol. 50:121-127 (2001)). It encompassed a broad range of ages and disease severity, and represented the current relapsing MS population with active disease, consistent with the approved indication. Patients with primary- or secondary-progressive MS were excluded. […]

[9] = Population pharmacokinetic analysis of natalizumab with concurrent AVONEX; type: in vivo, human
Method: In a placebo-controlled MS study, the administration of AVONEX® appeared to be associated with an increase in the serum concentrations of natalizumab in a small cohort on whom intensive pharmacokinetic sampling was performed. However, based upon a comparison of the mean post-hoc parameter estimates from the population pharmacokinetic analysis, steady-state clearance and half-life values differed between patients concurrently taking AVONEX® and natalizumab monotherapy, but only by approximately 5%, and were not considered clinically significant. […] It is notable that the two reports of PML in the MS database occurred in patients receiving concomitant AVONEX®. Thus, the risk of PML with natalizumab treatment may be increased by concomitant treatment with interferon β, though this could have occurred in two patients on combination therapy due to chance alone (p=0.23).

JCV [10] = assay: Safety evaluation for PML / JCV in natalizumab-exposed clinical trial patients
Source text: Clinical trial patients exposed to natalizumab were systematically assessed for evidence of incipient PML or any other opportunistic infection.
Criteria were established prospectively for the neuroradiologic evidence and laboratory assays for the diagnosis of PML. A diagnosis of “confirmed PML” was defined by presence of progressive clinical disease, MRI signs typical of PML, detection of JCV DNA in CSF, or pathologic confirmation. Sufficient evidence to exclude PML was defined as lack of progressive neurological disease, MRI lesions not typical of PML or stable over time, or no detectable JCV DNA in the CSF if the MRI was suspicious. A case was deemed “indeterminate” if there was clinical or MRI suspicion of PML and follow-up clinical, MRI, or CSF data could not be obtained.
Investigators were requested to perform the assessment procedure, including medical history, neurological examination, brain MRI, and CSF collection. Blood samples were also collected for PCR analysis of JCV DNA as an exploratory adjunct. MRI scans were assessed by Central Reader Centers with expertise in neurological disorders, including the two Central Reader Centers for the original Phase 3 MS studies. A consensus guideline was developed prospectively to standardize criteria to help distinguish MS white matter abnormalities from those of PML.

MS patients [11] = assay: Safety of natalizumab in MS clinical trials (adverse events, deaths); type: in vivo, human
Source text: Eighteen treatment-emergent deaths occurred in the entire natalizumab program. The adverse events encountered in the trials, both common and serious, were similar in natalizumab-treated patients and controls. Adverse events that led to discontinuation of natalizumab occurred in 5.8% of natalizumab-treated MS patients and in 4.8% of placebo-treated MS patients, with urticaria being the most common cause of discontinuation in the natalizumab-treated patients (1.2%).
Of the eighteen deaths that occurred during the clinical trials, five occurred in the placebo-controlled MS trials (including two in patients who had received natalizumab and three who had received placebo). The patients who received natalizumab died of alcohol intoxication and metastatic malignant melanoma. The patients who received placebo died of cardiac arrest, respiratory arrest, and pleural carcinomatosis with seizures. Four deaths occurred in the open-label MS trials, due to respiratory distress, PML, suicide, and seizure due to MS.
At least one serious adverse event was encountered by 251 of the 1,617 natalizumab-treated MS patients (15.5%) and by 214 of the 1,135 placebo-treated patients (18.9%) in the placebo-controlled trial. The most common serious adverse events, classified by organ systems, were nervous system disorders (5.9% natalizumab, 10.2% placebo). […] The second most common serious adverse events were infections and infestations (2.4% natalizumab, 2.2% placebo), with appendicitis and urinary tract infection (<1% in both groups) as the most common.

[12] = mean post-hoc parameter estimates, population pharmacokinetic analysis

## Nc1ccn(C[C@@H](CO)OCP(=O)(O)O)c(=O)n1 [Cidofovir, cidofovir]
JCV [1]
  Clinical effect in PML: without clinical effect

## CN(C)CCCN1c2ccccc2Sc2ccc(Cl)cc21 [chlorpromazine]
JCV [2]
  Block of JCV cell entry: block

## O=C1Cc2cc(CCN3CCN(c4nsc5ccccc45)CC3)c(Cl)cc2N1 [zisprasidone]
[3]
  Potency as 5HT2(A) receptor antagonist relative to chlorpromazine and clozapine: significantly more potent

## glatiramer acetate
MS patients [4]
  Subjects who experienced at least one relapse despite treatment: 66%

## natalizumab: humanized antibody against VLA-4; humanized IgG4κ monoclonal antibody directed against the α-4-subunit of alpha-4 integrins
Crohn's Disease patients
  Deaths: Six
[5]; 589 patients, up to 120 weeks
  Tolerability in combination with AVONEX: well tolerated
[5]; compared to AVONEX therapy alone, trend on the mental component
  Quality of life, physical components of the SF-36: improved
[5]; two years, add-on to AVONEX
  Patients relapse-free: 54%
[5]; versus AVONEX alone, EDSS, two years
  Risk reduction of disability progression: 24%
[5]; versus AVONEX, two years
  Relative reduction in annualized relapse rate: 55%
[6]
  Deaths: two
[7]
  Interaction between glatiramer acetate and natalizumab pharmacokinetics: no interactions
  Interaction between glatiramer acetate and natalizumab α4-integrin receptor saturation: no interactions
[8]; monotherapy versus placebo
  Quality of life, physical and mental components of the SF-36: improved
[8]; monotherapy, two years
  Annualized relapse rate: 0.235
[8]; natalizumab versus placebo, two years
  Hazard ratio (95% confidence interval) for sustained progression of disability: 0.58 (0.43, 0.77)
[8]; two years, measured by EDSS, monotherapy
  Percentage of patients with sustained progression of disability: 17%
[8]; two years, monotherapy
  Patients remaining relapse-free: 67%
[8]; versus placebo, EDSS, two years
  Risk reduction of disability progression: 42%
[8]; versus placebo, two years
  Relative reduction in annualized relapse rate: 68%
[9]; [12]
  Difference in half-life, concurrent AVONEX versus natalizumab monotherapy: approximately 5%
  Difference in steady-state clearance, concurrent AVONEX versus natalizumab monotherapy: approximately 5%
[9]; small cohort with intensive pharmacokinetic sampling, placebo-controlled MS study
  Serum concentrations of natalizumab on administration of AVONEX: increase
JCV [10]; human, in vivo
  Incidence of PML: approximately 1 /1,000
  Incidence of PML, 95% confidence interval: 0.2-2.8 /1,000
  JCV in CSF: not detected
JCV [10]; two MS patients, one Crohn's Disease patient, two fatal
  Confirmed cases of PML: Three
MS patients [11]; 3,919 subjects in MS, Crohn's Disease and rheumatoid arthritis trials
  Tolerability: generally well tolerated
MS patients [11]; during natalizumab treatment, balanced with control groups
  Occurrence of malignancy: uncommon
MS patients [11]; human, in vivo
  Incidence of hypersensitivity reactions: approximately 4%
  Incidence of serious systemic hypersensitivity reactions: less than 1%
MS patients [11]; natalizumab-treated MS patients
  Adverse events that led to discontinuation: 5.8%
MS patients [11]; natalizumab-treated patients, most common cause of discontinuation
  Discontinuation due to urticaria: 1.2%
MS patients [11]; open-label MS trials
  Deaths: Four
MS patients [11]; placebo-controlled MS trial
  Serious adverse events: MS relapse: 4.7%
  Serious adverse events: appendicitis and urinary tract infection: < 1%
  Serious adverse events: infections and infestations: 2.4%
  Serious adverse events: nervous system disorders: 5.9%
MS patients [11]; placebo-controlled MS trial, 251 of 1,617 patients
  Patients with at least one serious adverse event: 15.5%
MS patients [11]; placebo-controlled MS trials, patients who had received natalizumab
  Deaths: two
